Experimental data reported in patent publication US20250075191A1, “MODIFIED BIOLUMINESCENT ENZYMES” (Light Bio, Inc., priority 2023, published 2025).

How the values were obtained:
[1] = Luciferase luminescence in E. coli lysates after luciferin addition; assay type: biochemical; conditions: 100 μM luciferin, maximal brightness
From the text: A library of amino acid substitutions was created applying mutagenesis to a gene encoding the luciferase derived from Neonothopanus nambi (SEQ ID NO: 8). pF4Ag shuttle vector (Promega) was used for gene expression in E. coli (T7 promoter-driven expression) and mammalian cells (CMV promoter-driven expression). The pF4Ag vector backbone introduces a C-terminal 3×-FLAG-HiBiT tag. Site-directed mutagenesis was used to substitute consensus amino acids at selected position in the luciferase sequence. Gene expression was performed in the E. coli strain KRX (Promega), which enables rhamnose-inducible expression of T7 RNA polymerase.
Colonies (in triplicate) were used to inoculate LB broth containing ampicillin ([…]) and cultures grown overnight in 96-well microtiter plates (20 hours, 37° C.). Cultures were diluted into fresh LB containing 0.1% rhamnose and ampicillin and grown for 3 hours at 37° C. 50 μl of the induced culture was lysed for 5 minutes at ambient temperature with a reagent consisting of 25 mM HEPES pH 7.5 and 0.3×PLB (E1941 Promega). 50 μl of lysate was combined with 50 μl luciferin (100 μM) in the lysis buffer and samples were measured for total luminescence using a GloMax®-Multi+luminometer. (Promega).

[2] = Enzyme thermostability in cleared E. coli lysates incubated at 22° C.; assay type: biochemical; conditions: then 100 μM luciferin
Method: To assess the effect on enzyme thermostability by the amino acid substitutions, lysates of transformed E. coli were prepared by sonication and cleared by centrifugation. The cleared lysates were diluted 1:100 into Tris-buffered saline with 0.01% BSA and 0.1% n-dodecyl β-D-maltoside. 100 μl of each diluted lysate were added to a 96-well PCR plate. Samples were incubated at 22° C. and at various time points aliquots were placed on ice. When all of the samples were processed, 50 μl of each was combined with 50 μl of 100 μM luciferin in Tris-buffered saline with 0.01% BSA and 0.1% n-dodecyl β-D-maltoside. Samples were immediately placed in a GloMax®-Multi+luminometer (Promega) to measure bioluminescence.

[3] = test system: yeast cells (P. pastoris); experiment: Stability of luciferase within yeast cells after 10 min incubation at different temperatures; assay type: cell-based; conditions: then luciferin
Method: To evaluate stability of nnLuz_WT and nnLuz_v4 within yeast cells, strains expressing nnLuz WT or nnLux_v4 were grown on plates for 24 hours, then resuspended in PBS to final OD (600 nm)=5 and 50 μl was placed in wells of a 96-well PCR plate. Different portions of the plate were incubated at different temperatures for 10 minutes using a gradient thermal cycler. The plate were then placed on ice for 5 minutes and 10 μl of 500 μM luciferin (2% DMSO, 10 mM thioglycolic acid, 0.1% DDM in DPBS) were added to each well. Then 25 μl of suspension from each well was transferred to a black 96-well plate containing 0.2 M sodium phosphate buffer with 0.5 M Na2SO4,pH=8.

HEK293 cells = experiment: Hispidin hydroxylase activity in HEK293 cells co-transfected with nnLuz_v3, hispidin added, normalized to HiBiT; assay type: cell-based
Method: A library of amino acid substitutions was created applying mutagenesis to a gene encoding the hispidin hydroxylase derived from Neonothopanus nambi (SEQ ID NO: 12). This was achieved by the same method as described in Example 1. Activity was evaluated in HEK293 cells co-transfected with a gene encoding nnLuz_v3. Bioluminescence was measured as described in Example 1, except with addition of hispidin instead of luciferin.
To estimate specific activity, both luciferase activity and HiBiT were measure for each sample (see Example 2). Activity of each variant was then normalized to the expression level (i.e., luciferase bioluminescence/HiBiT signal). Substitutions at 28 positions were examined by this method.

| Molecule | production of bioluminescence relative to parental nnLuz [1] | enzyme stability relative to unmodified parental luciferase [2] | bioluminescence over parental enzyme nnH3H_WT, normalized to expression level (HiBiT) (HEK293 cells) | other results |
| --- | --- | --- | --- | --- |
| T99P: nnLuz luciferase variant with single amino acid substitution T99P (protein, UniProt A0A3G9JYH7 1-267, looked up, variant T99P) Luciferase: MRINISLSSLFERLSKLSSRSIAITCGVVLASAIAFPIIRRDYQTFLEVGPSYAPQNFRGYIIVCVLSLFRQEQKGLAIYDRLPEKRRWLADLPFREGPRPSITSHIIQRQRTQLVDQEFATRELIDKVIPRVQARHTDKTFLSTSKFEFHAKAIFLLPSIPINDPLNIPSHDTVRRTKREIAHMHDYHDCTLHLALAAQDGKEVLKKGWGQRHPLAGPGVPGPPTEWTFLYAPRNEEEARVVEMIVEASIGYMTNDPAGKIVENAK | significant improvements | more stable | – | – |
| A199P: nnLuz luciferase variant with single amino acid substitution A199P (protein, listed as Neonothopanus nambi) MRINISLSSLFERLSKLSSRSIAITCGVVLASAIAFPIIRRDYQTFLEVGPSYAPQNFRGYIIVCVLSLFRQEQKGLAIYDRLPEKRRWLADLPFREGTRPSITSHIIQRQRTQLVDQEFATRELIDKVIPRVQARHTDKTFLSTSKFEFHAKAIFLLPSIPINDPLNIPSHDTVRRTKREIAHMHDYHDCTLHLALAPQDGKEVLKKGWGQRHPLAGPGVPGPPTEWTFLYAPRNEEEARVVEMIVEASIGYMTNDPAGKIVENAK | significant improvements | more stable | – | – |
| T192S: nnLuz luciferase variant with single amino acid substitution T192S (protein, listed as Neonothopanus nambi) MRINISLSSLFERLSKLSSRSIAITCGVVLASAIAFPIIRRDYQTFLEVGPSYAPQNFRGYIIVCVLSLFRQEQKGLAIYDRLPEKRRWLADLPFREGTRPSITSHIIQRQRTQLVDQEFATRELIDKVIPRVQARHTDKTFLSTSKFEFHAKAIFLLPSIPINDPLNIPSHDTVRRTKREIAHMHDYHDCSLHLALAAQDGKEVLKKGWGQRHPLAGPGVPGPPTEWTFLYAPRNEEEARVVEMIVEASIGYMTNDPAGKIVENAK | significant improvements | more stable | – | – |
| nnLuz_WT: parental luciferase derived from Neonothopanus nambi (SEQ ID NO: 1) (protein, listed as Neonothopanus nambi) MRINISLSSLFERLSKLSSRSIAITCGVVLASAIAFPIIRRDYQTFLEVGPSYAPQNFRGYIIVCVLSLFRQEQKGLAIYDRLPEKRRWLADLPFREGTRPSITSHIIQRQRTQLVDQEFATRELIDKVIPRVQARHTDKTFLSTSKFEFHAKAIFLLPSIPINDPLNIPSHDTVRRTKREIAHMHDYHDCTLHLALAAQDGKEVLKKGWGQRHPLAGPGVPGPPTEWTFLYAPRNEEEARVVEMIVEASIGYMTNDPAGKIVENAK | – | – | – | reduction of luminescence after incubation at 40° C. ([3]; 10 min at 40° C.): > 3 fold; reduction of luminescence after incubation at 45° C. ([3]; 10 min at 45° C.): 100 fold |
| D37E: nnH3H hispidin hydroxylase variant with single substitution D37E (protein, listed as Neonothopanus nambi) MASFENSLSVLIVGAGLGGLAAAIALRRQGHVVKIYESSSFKAELGAGLAVPPNTLRSLQQLGCNTENLNGVDNLCFTAMGYDGSVGMMNNMTDYREAYGTSWIMVHRVDLHNELMRVALDPGGLGPPATLHLNHRVTFCDVDACTVTFTNGTTQSADLIVGADGIRSTIRRFVLEEDVTVPASGIVGFRWLVQADALDPYPELDWIVKKPPLGARLISTPQNPQSGVGLADRRTIIIYACRGGTMVNVLAVHDDERDQNTADWSVPASKDDLFRVFHDYHPRFRRLLELAQDINLWQMRVVPVLKKWVNKRVCLLGDAAHASLPTLGQGFGMGLEDAVALGTLLPKGTTASQIETRLAVYEQLRKDRAEFVAAESYEEQYVPEMRGLYLRSKELRDRVMGYDIKVESEKVLETLLRSSNSA | – | – | significantly increased bioluminescence | – |
| A183P: nnH3H hispidin hydroxylase variant with single substitution A183P (protein, listed as Neonothopanus nambi) MASFENSLSVLIVGAGLGGLAAAIALRRQGHVVKIYDSSSFKAELGAGLAVPPNTLRSLQQLGCNTENLNGVDNLCFTAMGYDGSVGMMNNMTDYREAYGTSWIMVHRVDLHNELMRVALDPGGLGPPATLHLNHRVTFCDVDACTVTFTNGTTQSADLIVGADGIRSTIRRFVLEEDVTVPPSGIVGFRWLVQADALDPYPELDWIVKKPPLGARLISTPQNPQSGVGLADRRTIIIYACRGGTMVNVLAVHDDERDQNTADWSVPASKDDLFRVFHDYHPRFRRLLELAQDINLWQMRVVPVLKKWVNKRVCLLGDAAHASLPTLGQGFGMGLEDAVALGTLLPKGTTASQIETRLAVYEQLRKDRAEFVAAESYEEQYVPEMRGLYLRSKELRDRVMGYDIKVESEKVLETLLRSSNSA | – | – | significantly increased bioluminescence | – |
| S323M: nnH3H hispidin hydroxylase variant with single substitution S323M (protein, listed as Neonothopanus nambi) MASFENSLSVLIVGAGLGGLAAAIALRRQGHVVKIYDSSSFKAELGAGLAVPPNTLRSLQQLGCNTENLNGVDNLCFTAMGYDGSVGMMNNMTDYREAYGTSWIMVHRVDLHNELMRVALDPGGLGPPATLHLNHRVTFCDVDACTVTFTNGTTQSADLIVGADGIRSTIRRFVLEEDVTVPASGIVGFRWLVQADALDPYPELDWIVKKPPLGARLISTPQNPQSGVGLADRRTIIIYACRGGTMVNVLAVHDDERDQNTADWSVPASKDDLFRVFHDYHPRFRRLLELAQDINLWQMRVVPVLKKWVNKRVCLLGDAAHAMLPTLGQGFGMGLEDAVALGTLLPKGTTASQIETRLAVYEQLRKDRAEFVAAESYEEQYVPEMRGLYLRSKELRDRVMGYDIKVESEKVLETLLRSSNSA | – | – | significantly increased bioluminescence | – |
| M385K: nnH3H hispidin hydroxylase variant with single substitution M385K (protein, listed as Neonothopanus nambi) MASFENSLSVLIVGAGLGGLAAAIALRRQGHVVKIYDSSSFKAELGAGLAVPPNTLRSLQQLGCNTENLNGVDNLCFTAMGYDGSVGMMNNMTDYREAYGTSWIMVHRVDLHNELMRVALDPGGLGPPATLHLNHRVTFCDVDACTVTFTNGTTQSADLIVGADGIRSTIRRFVLEEDVTVPASGIVGFRWLVQADALDPYPELDWIVKKPPLGARLISTPQNPQSGVGLADRRTIIIYACRGGTMVNVLAVHDDERDQNTADWSVPASKDDLFRVFHDYHPRFRRLLELAQDINLWQMRVVPVLKKWVNKRVCLLGDAAHASLPTLGQGFGMGLEDAVALGTLLPKGTTASQIETRLAVYEQLRKDRAEFVAAESYEEQYVPEKRGLYLRSKELRDRVMGYDIKVESEKVLETLLRSSNSA | – | – | significantly increased bioluminescence | – |
| V181I: nnH3H hispidin hydroxylase variant with single substitution V181I (protein, listed as Neonothopanus nambi) MASFENSLSVLIVGAGLGGLAAAIALRRQGHVVKIYDSSSFKAELGAGLAVPPNTLRSLQQLGCNTENLNGVDNLCFTAMGYDGSVGMMNNMTDYREAYGTSWIMVHRVDLHNELMRVALDPGGLGPPATLHLNHRVTFCDVDACTVTFTNGTTQSADLIVGADGIRSTIRRFVLEEDVTIPASGIVGFRWLVQADALDPYPELDWIVKKPPLGARLISTPQNPQSGVGLADRRTIIIYACRGGTMVNVLAVHDDERDQNTADWSVPASKDDLFRVFHDYHPRFRRLLELAQDINLWQMRVVPVLKKWVNKRVCLLGDAAHASLPTLGQGFGMGLEDAVALGTLLPKGTTASQIETRLAVYEQLRKDRAEFVAAESYEEQYVPEMRGLYLRSKELRDRVMGYDIKVESEKVLETLLRSSNSA | – | – | significantly increased bioluminescence | – |
